Four substances from article PMC3445459 can be followed below.

The target of one assay is LEDGF/p75 (UniProt O75475). Put plainly: AlphaScreen or HTRF; IN-LEDGF/p75 interaction assay as previously described (ref. 32), mutant IN proteins in place of WT; signal relative to WT IN. (Alpha assays give light when donor and acceptor beads are brought close together.)
In assay [1] the target is HIV-1 integrase K103E, 6xHis-tagged (HIV-1 (NL4-3)).
For assay [2], the target named is HIV-1 integrase E85F, 6xHis-tagged (HIV-1 (NL4-3)).
The target is the same in assay [3]. This is another data set of the same source.
Assay [4] deals with HIV-1 integrase W108F, 6xHis-tagged (HIV-1 (NL4-3)).

Chain of UniProt O75475 (O75475 whole entry): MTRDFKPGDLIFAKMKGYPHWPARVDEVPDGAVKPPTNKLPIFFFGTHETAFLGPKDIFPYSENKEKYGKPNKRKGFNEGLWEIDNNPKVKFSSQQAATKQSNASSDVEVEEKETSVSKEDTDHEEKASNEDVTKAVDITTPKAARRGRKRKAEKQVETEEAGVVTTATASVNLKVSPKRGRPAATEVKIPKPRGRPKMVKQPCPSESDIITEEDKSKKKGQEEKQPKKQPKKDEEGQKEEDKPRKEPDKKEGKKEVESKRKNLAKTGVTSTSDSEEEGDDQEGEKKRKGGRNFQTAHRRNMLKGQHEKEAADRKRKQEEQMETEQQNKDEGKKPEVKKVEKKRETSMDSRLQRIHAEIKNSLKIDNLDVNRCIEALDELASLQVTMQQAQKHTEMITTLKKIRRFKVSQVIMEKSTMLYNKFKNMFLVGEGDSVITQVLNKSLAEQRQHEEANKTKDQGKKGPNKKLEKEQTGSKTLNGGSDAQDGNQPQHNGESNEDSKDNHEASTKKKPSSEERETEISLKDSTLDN

“HIV-1 integrase K103G, 6xHis-tagged (enzyme)”: in the assay with LEDGF/p75, the interaction relative to WT IN (of the WT interaction) was below 0.33 and the percent of the WT interaction level is 30 % of WT.

For the substance “HIV-1 integrase K103E, 6xHis-tagged (enzyme)”, the in vitro strand transfer activity with pre-processed 19-mer DNA substrate, relative to WT IN in assay [1] is 29 % of WT.

As for “HIV-1 integrase E85F, 6xHis-tagged (enzyme)”, the in vitro strand transfer activity with 21-mer DNA substrate, relative to WT IN in assay [2] is 37 % of WT. For the same substance, in assay [3], the in vitro strand transfer activity with pre-processed 19-mer DNA substrate, relative to WT IN was 1.6 fold of WT.

Take “HIV-1 integrase W108F, 6xHis-tagged (enzyme)”: the in vitro strand transfer activity with pre-processed 19-mer DNA substrate, relative to WT IN in assay [4] is 30 % of WT.
